What was measured:
CD44抗原 (THP-1细胞系表面) [1] = molecular target: CD44抗原 (THP-1细胞系表面) (UniProt P16070); experiment: flow cytometry on CD44-positive THP-1 cells, HI44a 20 μl (1 mg/ml) then PBS (positive control), goat anti-mouse IgG-FITC
CD44抗原 (THP-1细胞系表面) [2] = molecular target: CD44抗原 (THP-1细胞系表面) (UniProt P16070); experiment: flow cytometry on THP-1 cells, HI44a 20 μl (1 mg/ml) then competitor anti-CD44 ScFv 100 μl (1 mg/ml), goat anti-mouse IgG-FITC

- 结合阳性率 (CD44抗原 (THP-1细胞系表面) [1]): 51%
- 结合阳性率 (经抗CD44 ScFv竞争后) (CD44抗原 (THP-1细胞系表面) [2]): 27.1%
B1: 抗CD44单克隆抗体HI44a (antibody, IgG2a, V domains shown)
VH: QVKLQESGPGILQPSQTLSLTCSISGFSLNTSGMGVSWIRQPSGKGLEWLAHIYWDDGKRYNPSLKSRLTISKDTSRNQVFLKITSVDTADTGTYYCARRAYGINFAFDYWGQGTTVTVSS
VL: DIQLTQTAAILSVSPGERVSFSCRTSQSIGTSIHWYHQRTNGSPRLLIKSASESMSGIPSRFSGSGSGTDFTLSINSVESEDIAYYYCQQSNSWPLTFGAGTKLEIKR
